T1: biotinylated hOX40L (human, UniProt P23510 51-183, limits assumed, biotinylated (sites not given))
T1 construct: construct not described
T1 sequence: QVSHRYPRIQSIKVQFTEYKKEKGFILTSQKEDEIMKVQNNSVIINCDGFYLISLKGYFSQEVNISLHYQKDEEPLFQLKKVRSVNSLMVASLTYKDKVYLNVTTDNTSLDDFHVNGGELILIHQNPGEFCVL

T2: Recombinant Human OX40L Protein, His Tag (Acro Cat. IL3-H52H4) (human, UniProt P23510 51-183)
T2 construct: Bought His-tagged protein; also called hOX40L
T2 sequence: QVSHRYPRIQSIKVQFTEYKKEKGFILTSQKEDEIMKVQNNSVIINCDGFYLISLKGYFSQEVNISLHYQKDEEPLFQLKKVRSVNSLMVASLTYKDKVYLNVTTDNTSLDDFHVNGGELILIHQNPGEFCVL

T3: hOX40L added as soluble protein in cell assays (human, UniProt P23510 51-183, limits assumed)
T3 sequence: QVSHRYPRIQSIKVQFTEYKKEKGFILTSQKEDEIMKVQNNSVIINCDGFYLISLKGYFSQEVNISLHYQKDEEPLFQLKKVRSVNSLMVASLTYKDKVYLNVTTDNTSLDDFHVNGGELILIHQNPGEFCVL

T4: Recombinant Cynomolgus OX40L Protein, His Tag (SINO BIOLOGICAL, Cat. 11057-C07H) (cynomolgus, UniProt G7NVH7 51-183)
T4 construct: Bought protein
T4 sequence: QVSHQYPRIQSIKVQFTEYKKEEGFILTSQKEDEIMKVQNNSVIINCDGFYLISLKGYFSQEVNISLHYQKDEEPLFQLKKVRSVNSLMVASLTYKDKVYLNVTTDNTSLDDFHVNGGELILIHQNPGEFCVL

T5: hOX40L on hOX40L-expressing CHO cells (human, UniProt P23510 1-183)
T5 construct: also called cell surface OX40L
T5 sequence: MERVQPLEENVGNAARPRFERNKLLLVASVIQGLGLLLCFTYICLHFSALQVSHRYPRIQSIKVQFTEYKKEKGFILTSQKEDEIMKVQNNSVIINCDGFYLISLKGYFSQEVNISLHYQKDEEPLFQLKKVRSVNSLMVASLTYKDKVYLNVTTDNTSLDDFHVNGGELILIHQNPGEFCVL


Legend:
biotinylated hOX40L = target: T1, biotinylated hOX40L; test: blocking ELISA: biotinylated hOX40L preincubated with titrated antibody, added to coated hOX40-Fc, Extravidin-HRP
[1] = target: T2, Recombinant Human OX40L Protein, His …; test: SPR (Biacore 8K), antibody captured, human OX40L injected, 1:1 fit
Description: (§1) Samples were injected in a multi-cycle manner over freshly captured mAb, by regenerating the capture surfaces with injection of glycine pH 1.5 for 30 sec at a flow rate of 30 μL/min. The data was processed and analyzed with Biacore Insight Evaluation Software Version 2.0.15.12933 (GE Healthcare) as follows. […] The responses from the two buffer blank injections were then subtracted from the reference subtracted data (2-1) to yield double-referenced data, which were fit to an 1:1 binding model to determine the apparent association (ka) and dissociation rate constants (kd). Their ratio provided the apparent equilibrium dissociation constant or affinity constant (KD=kd/ka).

[2] = target: T3, hOX40L added as soluble protein in cell …; test: cell-based or functional assay
human FcRn = human FcRn (human, UniProt P55899 24-297; P61769 21-119); test: SPR (Biacore 8K+), antibody captured by anti-human kappa, human FcRn injected, pH 5.8; pH 5.8
human FcRn, sequence (P55899 24-297 limits assumed, form in doubt, chain 1 of 2): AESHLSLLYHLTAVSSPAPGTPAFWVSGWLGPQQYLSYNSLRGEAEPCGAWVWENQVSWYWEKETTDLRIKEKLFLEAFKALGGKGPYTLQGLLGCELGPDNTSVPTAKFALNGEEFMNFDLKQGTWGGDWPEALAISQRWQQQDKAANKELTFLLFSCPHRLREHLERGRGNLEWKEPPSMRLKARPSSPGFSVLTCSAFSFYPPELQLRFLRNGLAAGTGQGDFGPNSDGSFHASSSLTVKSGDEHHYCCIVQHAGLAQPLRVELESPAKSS
human FcRn, sequence (P61769 21-119 limits assumed, form in doubt, chain 2 of 2): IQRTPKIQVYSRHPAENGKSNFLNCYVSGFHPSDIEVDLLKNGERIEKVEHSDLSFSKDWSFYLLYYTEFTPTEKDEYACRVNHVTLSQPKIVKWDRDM
Description: (§2) Briefly, a CM5 Series S sensor chip functionalized with anti-human kappa antibody was used to capture antibodies at 5 μg/mL. […] The chip was regenerated with 10 mM glycine pH 1.5 and 10 mM NaOH between runs.

[3] = target: T4, Recombinant Cynomolgus OX40L Protein, …; test: SPR (Biacore 8K), antibody captured, cynomolgus OX40L injected, 1:1 fit
Description: as §1

C1q = target: T6, C1q; test: SPR (Biacore 8K+), antibody captured by anti-human IgG Fc, C1q injected at 25 nM, mean response
T6 construct: also called Clq
T6 sequence (P02745 23-245, chain 1 of 3): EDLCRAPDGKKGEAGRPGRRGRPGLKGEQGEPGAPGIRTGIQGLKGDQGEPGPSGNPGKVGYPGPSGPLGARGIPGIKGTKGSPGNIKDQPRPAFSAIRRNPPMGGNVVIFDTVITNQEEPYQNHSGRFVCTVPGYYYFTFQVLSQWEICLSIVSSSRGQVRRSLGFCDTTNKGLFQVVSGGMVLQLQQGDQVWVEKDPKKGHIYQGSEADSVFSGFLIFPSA
T6 sequence (P02746 28-253, chain 2 of 3, further chain): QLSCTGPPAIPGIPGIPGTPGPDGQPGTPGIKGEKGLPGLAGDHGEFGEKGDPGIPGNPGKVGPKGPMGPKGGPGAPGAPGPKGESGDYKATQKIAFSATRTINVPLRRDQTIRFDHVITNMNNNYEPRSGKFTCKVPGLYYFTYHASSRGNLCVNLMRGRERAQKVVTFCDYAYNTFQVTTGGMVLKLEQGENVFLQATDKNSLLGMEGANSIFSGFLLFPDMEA
T6 sequence (P02747 29-245, chain 3 of 3, further chain): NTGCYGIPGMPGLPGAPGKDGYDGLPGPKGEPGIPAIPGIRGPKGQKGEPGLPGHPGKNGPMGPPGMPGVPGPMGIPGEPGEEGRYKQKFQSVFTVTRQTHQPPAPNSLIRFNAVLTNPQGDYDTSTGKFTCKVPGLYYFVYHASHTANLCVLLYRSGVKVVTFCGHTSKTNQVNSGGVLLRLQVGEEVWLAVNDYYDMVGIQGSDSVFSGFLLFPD
Description: Briefly, a CM5 Series S sensor chip functionalized with anti-human IgG Fc antibody was used to capture antibodies at 5 μg/mL. […] The chip was regenerated with 10 mM glycine pH 1.5 and 10 mM NaOH between runs.

cynomolgus FcRn = cynomolgus FcRn (cynomolgus, UniProt Q8SPV9 24-297; Q8SPW0 21-119); test: SPR (Biacore 8K+), antibody captured by anti-human kappa, cynomolgus FcRn injected, pH 5.8; pH 5.8
cynomolgus FcRn, sequence (Q8SPV9 24-297 limits assumed, chain 1 of 2): as the sequence (P55899 24-297 limits assumed, form in doubt, chain 1 of 2) above, with N39D, E44Q, G99S, S189G, S190N, L217M, S269T counted along it
cynomolgus FcRn, sequence (Q8SPW0 21-119 limits assumed, chain 2 of 2): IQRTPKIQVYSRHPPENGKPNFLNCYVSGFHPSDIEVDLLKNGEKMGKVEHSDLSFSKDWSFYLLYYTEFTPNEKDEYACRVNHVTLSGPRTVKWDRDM
Description: as §2

[4] = target: T5, hOX40L on hOX40L-expressing CHO cells; test: flow cytometry on hOX40L-expressing CHO cells, gMFI, nonlinear regression
Description: Nonlinear regression was performed on geometric mean fluorescence intensity (gMFI) values to determine EC50 values (FIG. 1, TABLE 8).

Binder | IC50 (biotinylated hOX40L) | Kd [1] | koff [1] | kon [1] | IC50, luminescence (RLU), hOX40 reporter cells with 50 ng/mL hOX40L [2] | Kd (human FcRn) | koff (human FcRn) | kon (human FcRn) | Kd [3] | koff [3] | kon [3] | RU at 25 nM C1q (C1q) | Kd (cynomolgus FcRn) | koff (cynomolgus FcRn) | kon (cynomolgus FcRn) | EC50 [4]
anti-hOX40L antibody clone 122 (antibody, human IgG1, kappa, L234A L235A, V domains shown) VH: EVQLVESGGGLVQPGGSLRLSCAASGFTFSNYWMHWVRQAPGKGLVWVSRINSDGISTRYADSVKGRFTISRDNAKNTLYLQMKSLRAEDTAVYYCVRDFQLELPDYWGQGTLVTVSS VL: DIQMTQSPSSLSASVGDRVTITCRASQGIRDDLAWYQQKAGKAPKRLIFAASSLQSGVPSRFSGSGSGTEFTLTISGLQPEDFANYYCLQHKSNPFTFGQGTKLEIKR | 1.57 nM | < 0.00662 nM | < 1e-06 s⁻¹ | 151000 M⁻¹ s⁻¹ |  |  |  |  |  |  |  |  |  |  |  | 
anti-hOX40L antibody clone 127 (antibody, human IgG1, kappa, L234A L235A, V domains shown) VH: EVQLVESGGGFVKPGGSLRLSCAASGFTFSNAWMSWVRQAPGKGLEWVGRIKSNSYGGTTDYAAPAIGRFTISRDGSKSTLYLQMNSLKTEDTAVYYCTTDHPKFGFDFWGQGTLVTVSS VL: not shown |  | 1.11 nM | 0.00021 s⁻¹ | 189000 M⁻¹ s⁻¹ | 1.72 nM |  |  |  |  |  |  |  |  |  |  | 
anti-hOX40L antibody clone 118 (antibody, human IgG1, kappa, L234A L235A, V domains shown) VH: EVQVVESGGGLIQPGGSLRISCAASGFPVSSNYMSWVRQAPGKGLDWVSIIYSRDSTHYADSVKGRFTMSRDNSKNTVYLQMNSLRAEDTAVYYCAGTLTYYYGAGSDYWGQGTLVTVSS VL: DIQMTQSPSSLSASVGDRVTITCRASQGIRNDLGWYQQKPGKAPKRLIYAASSLQSGVPSRFSGSGSGTEFTLTISSLQPEDFATYYCLQHNSYPWSFGQGTKVEIKR |  | 0.182 nM | 2.82e-05 s⁻¹ | 155000 M⁻¹ s⁻¹ | 0.912 nM |  |  |  |  |  |  |  |  |  |  | 
anti-hOX40L antibody clone 130 (antibody, human IgG1, kappa, L234A L235A, V domains shown) VH: EVQLVESGGGLVKPGGSLRLSCAASGFTFSYAWMSWVRQAPGRGLEWVGRIKSETDGGTTDYAAPVKGRFTISRDHSENTLFLQMNSLKTEDTAVYYCTTGSSWNVYFFDFWGQGTLVTVSS VL: DIQMTQSPSSLSASVGDSVTITCRASQSISNYLNWYHQKPGKAPKLLIYAAYRLQTGVPSRFSGSGSGTDFTLTISSLQPEDFATYYCQQSYSSPLTFGGGTKVEIKR | 13 nM | 0.0873 nM | 1.14e-05 s⁻¹ | 131000 M⁻¹ s⁻¹ |  |  |  |  |  |  |  |  |  |  |  | 
anti-hOX40L antibody clone 328 (antibody, human IgG1, kappa, L234A L235A) heavy: QVQLQESGPGLVKPSQTLSLTCTVSGGSISSGGYYWSWIRQYPGKGLEWIGHIYYSGSTKYNPSLKSRLTISVDTSKNQFSLKLSSVTAADTAVYYCARDNWGSGWYYMDVWGKGTTVTVSSASTKGPSVFPLAPSSKSTSGGTAALGCLVKDYFPEPVTVSWNSGALTSGVHTFPAVLQSSGLYSLSSVVTVPSSSLGTQTYICNVNHKPSNTKVDKKVEPKSCDKTHTCPPCPAPEAAGGPSVFLFPPKPKDTLYITREPEVTCVVVDVSHEDPEVKFNWYVDGVEVHNAKTKPREEQYNSTYRVVSVLTVLHQDWLNGKEYKCKVSNKALPAPIEKTISKAKGQPREPQVYTLPPSRDELTKNQVSLTCLVKGFYPSDIAVEWESNGQPENNYKTTPPVLDSDGSFFLYSKLTVDKSRWQQGNVFSCSVMHEALHNHYTQKSLSLSPG light: EIVLTQSPATLSLSPGERATLSCRASQSVSNYFAWYRQKPGQAPRLLIYDASNRATGIPARFSGSGSGTDFTLTISSLEPEDFAVYYCQHRSNWPLTFGGGTKVEIKRTVAAPSVFIFPPSDEQLKSGTASVVCLLNNFYPREAKVQWKVDNALQSGNSQESVTEQDSKDSTYSLSSTLTLSKADYEKHKVYACEVTHQGLSSPVTKSFNRGEC | 5.99 nM | 0.136 nM | 0.000271 s⁻¹ | 2e+06 M⁻¹ s⁻¹ | 1.9 nM | 137 nM | 0.046 s⁻¹ | 336000 M⁻¹ s⁻¹ | 0.0316 nM | 0.000152 s⁻¹ | 4.8e+06 M⁻¹ s⁻¹ | 0.2 RU | 116 nM | 0.0462 s⁻¹ | 399000 M⁻¹ s⁻¹ | 
positive control based on the sequences of the anti-hOX40L antibody amlitelimab (antibody, IgG4, V domains shown, also called Pos; Ctrl) VH: EVQLVESGGGLVQPGGSLRLSCAASGFTFSNYAMNWVRQAPGKGLEWVSTISGSGGATRYADSVKGRFTISRDNSRNTVYLQMNSLRVEDTAVFYCTKDRLIMATVRGPYYYGMDVWGQGTTVTVSS VL: DIQMTQSPSSLSASVGDRVTITCRASQSISSYLNWYQQKPGKAPNLLIYAASSLQSGVPSRFSGSGSETDFTLTISSLQPEDFATYYCQQSHSVSFTFGPGTKVDIK | 0.62 nM |  |  |  |  |  |  |  | 0.0455 nM | 0.000119 s⁻¹ | 2.62e+06 M⁻¹ s⁻¹ |  |  |  |  | 3.49 nM
anti-hOX40L antibody clone 128 (antibody, human IgG1, kappa, L234A L235A, V domains shown) VH: EVQLVESGGGLVTPGGSLRISCAASGFTFNNAWMTWVRQAPGKGLEWVGRIKSISYGGTTDSAAPVKGRFTISRDDSENTLYLQMSSLKTEDTAVYYCSTGSVWKYGGSLDFWGQGTLVTVSS VL: DIQMTQSPSSLSASVGDRVTFTCRASQGISRFLNWYQQKPGKAPKLLIYAASTLQNGVPSRFSGSGSGTDFTLTISSLQPEDFATYFCQQTYSTPLTFGGGTKVEIYR | 7.52 nM | < 0.00893 nM | < 1e-06 s⁻¹ | 112000 M⁻¹ s⁻¹ |  |  |  |  |  |  |  |  |  |  |  | 

Source: US20260217843A1 (APOGEE THERAPEUTICS, published 2026)
